Data on three substances can be found in patent US20260022171A1.

Test [1] addresses human CD200R1 on cells (human) (UniProt Q8TD46). In words: cell-based or functional assay.
The target of test [2] is cynomolgus monkey CD200R1 on cells (cynomolgus monkey). In words: flow cytometry, biotinylated antibody on cynomolgus CD4+ T cells (PBMC), streptavidin-PE; concentration not shown. Background: Flow cytometry measures light scatter and fluorescence of single cells or particles in a stream.
Test [3] has the same target. In words: flow cytometry, biotinylated antibody on cynomolgus CD8+ T cells (PBMC), streptavidin-PE; concentration not shown.
Test [4] deals with human CD200R1 on cells (human) (UniProt Q8TD46). In words: flow cytometry, blocking: U937 cells stably expressing hu-CD200R1 incubated with the antibody, then with 55 nM huCD200-Fc-Flag, detected with anti-Flag PE (MFI).

Chain of hu-CD200-Fc (Fc fusion) (chain): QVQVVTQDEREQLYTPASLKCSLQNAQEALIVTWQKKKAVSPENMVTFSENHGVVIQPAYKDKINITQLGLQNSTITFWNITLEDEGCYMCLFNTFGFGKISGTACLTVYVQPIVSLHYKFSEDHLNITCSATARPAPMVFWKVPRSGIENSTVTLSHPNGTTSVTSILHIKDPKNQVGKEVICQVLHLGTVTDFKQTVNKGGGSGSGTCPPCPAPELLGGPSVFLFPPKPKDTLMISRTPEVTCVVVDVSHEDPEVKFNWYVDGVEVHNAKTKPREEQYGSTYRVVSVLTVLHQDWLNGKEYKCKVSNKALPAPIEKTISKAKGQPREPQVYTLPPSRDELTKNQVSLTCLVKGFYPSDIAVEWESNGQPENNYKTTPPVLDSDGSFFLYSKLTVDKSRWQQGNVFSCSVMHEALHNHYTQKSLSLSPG

As to hu-CD200-Fc (Fc fusion), in test [1], the pDok2 induction, western blot, U937 cells expressing CD200R1 was 200 nM.

On to “OX108 (commercial anti-CD200R1 antibody)”, for which the Mean:Comp-FL2-A in test [2] stood at 566; in test [3], 425. Further, the pDok2 induction, western blot, U937 cells expressing CD200R1 in test [1] was determined as 33 nM. Besides, the concentration for half-maximal inhibition (IC50) (in general, the concentration that inhibits the measured activity by half) in test [4] came out at 2.8 nM.

In the case of IgG Control (antibody), the Mean:Comp-FL2-A was 403 in test [2] and 411 in test [3].
